Target: MtbGyrBAcore(Y129F) (Mycobacterium tuberculosis, UniProt P9WG45 426-675+P9WG47:2-500, Y129F;internal_change)
Experiment: X-ray crystallography

Does GGCCCTACGGCTGAAAGCCGTAGGGCCCTACGGCTGAAAGCCGTAG (structured_DNA) [singly nicked duplex with GAA triloop ends] bind?
Result: binds
